According to publication PMC4220643 (2014):

What was measured:
[1] = target: Im7-D2 (C-terminal domain of D2 fused to Im7) (Thermosynechococcus elongatus, UniProt Q8CM25 289-352); test: SPR
[2] = target: Im7-D1a (D1 a-loop fused to Im7) (Thermosynechococcus elongatus, UniProt P0A444 54-113); test: SPR
Sequence of Im7-D1a (D1 a-loop fused to Im7) (P0A444 54-113): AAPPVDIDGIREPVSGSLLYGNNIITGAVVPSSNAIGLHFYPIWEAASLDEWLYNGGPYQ

Sequence of Im7-D2 (C-terminal domain of D2 fused to Im7) (Q8CM25 289-352): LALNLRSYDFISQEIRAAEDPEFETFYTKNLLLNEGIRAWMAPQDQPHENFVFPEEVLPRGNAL

Kd [1]: ~41 µM
Kd [2]: ~60 µM
B1: PsbO (natural protein)
chain: AKQTLTYDDIVGTGLANKCPTLDDTARGAYPIDSSQTYRIARLCLQPTTFLVKEEPKNKRQEAEFVPTKLVTRETTSLDQIQGELKVNSDGSLTFVEEDGIDFQPVTVQMAGGERIPLLFTVKNLVASTQPNVTSITTSTDFKGEFNVPSYRTANFLDPKGRGLASGYDSAIALPQAKEEELARANVKRFSLTKGQISLNVAKVDGRTGEIAGTFESEQLSDDDMGAHEPHEVKIQGVFYASIEPA
